Our source for the Kd values is patent US20200165323A1 (PANASONIC INTELLECTUAL PROPERTY MANAGEMENT, published 2020).

Broadly, the Kd is the equilibrium constant for the complex coming apart.

The target in the assay is recombinant nucleoprotein (NP) protein derived from influenza virus H1N1 to which a Flag tag was fus (influenza virus H1N1).
Chain of recombinant nucleoprotein (NP) protein derived from influenza virus H1N1 to which a Flag tag was fus (influenza virus H1N1) (P03466 whole entry): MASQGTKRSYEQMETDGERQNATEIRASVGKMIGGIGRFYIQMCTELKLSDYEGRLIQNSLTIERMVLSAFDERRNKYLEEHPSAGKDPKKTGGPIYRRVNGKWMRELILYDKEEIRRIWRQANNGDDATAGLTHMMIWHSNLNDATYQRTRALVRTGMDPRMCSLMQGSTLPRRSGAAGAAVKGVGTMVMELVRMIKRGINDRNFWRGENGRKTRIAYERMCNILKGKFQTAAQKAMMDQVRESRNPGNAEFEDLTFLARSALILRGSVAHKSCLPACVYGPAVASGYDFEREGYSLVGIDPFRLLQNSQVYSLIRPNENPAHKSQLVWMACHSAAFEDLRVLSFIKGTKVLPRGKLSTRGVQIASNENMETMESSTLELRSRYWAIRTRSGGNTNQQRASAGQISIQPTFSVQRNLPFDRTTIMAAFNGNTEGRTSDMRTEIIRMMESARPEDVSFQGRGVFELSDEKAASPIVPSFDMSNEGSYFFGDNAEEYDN

B1: VHH antibody consisting of the amino acid sequence represented by SEQ ID NO: 8 (VHH)
VHH: QLQLVESGGGLVQAGGSLRLSCAASGSAFSLYAMGWHRQAPGKQRELVAYITNGDITNYADSVQGRVIISRDNAKNTVYLHMNSLKPEDTAVYYCYAVGGRTFWGQGTQVTVSS
For B1, the Kd was determined as 1.09 nM.
